Measurements from paper PMC6396024, “Artemin and an Artemin-Derived Peptide, Artefin, Induce Neuronal Survival, and Differentiation Through Ret and NCAM” (Frontiers in Molecular Neuroscience, 2019).
Blank lines part the entries; values can stand above or below the molecule they belong to. Bridge positions count the residues as written; N and C are the ends. Ends that are not written are not given here. I, II: the chains in the order shown.

Columns and labels:
GFRα1 [1] = assay: SPR binding to immobilized GFRα1/Fc; conditions: artefin 15.6 μM
GFRα2 [2] = assay: SPR binding to immobilized GFRα2/Fc; conditions: artefin 15.6 μM
[3] = Circular dichroism spectroscopy; type: physicochemical; conditions: 10 μM, 10 mM NaH2PO4 pH 7.0, room temperature, tetrameric peptide
Protocol: Circular dichroism (CD) spectra were measured over the range 190–250 nm using a Jasco J-810 spectropolarimeter in cells with path length 1 mm at room temperature. The peptide was dissolved in 10 mM NaH2PO4 buffer, pH 7.0, to the final concentration 10 μM. Data were recorded at a scan speed of 20 nm/min with 10 repeat scans accumulated to obtain the final average spectra. Following the buffer subtraction, the observed ellipticity θ (mdeg) was converted to mean residue ellipticity [θ] (deg cm^2/dmol) using the following relationship [θ] = 100θ /(lcn) where ‘l’ is path length in centimeters, ‘c’ is the millimolar concentration, and ‘n’ is the number of residues in the peptide.

GFRα1 [4] = test system: GFRα1; set-up: method as in Scott and Ibañéz, 2001; conditions: previously shown; ref Scott and Ibañéz, 2001; cited from earlier work
GFRα2 [5] = test system: GFRα2; set-up: method as in Scott and Ibañéz, 2001; conditions: previously shown; ref Scott and Ibañéz, 2001; cited from earlier work
[6] = test system: patients with lumbosacral radiculopathy; conditions: intravenous, Phase 2; particularly at the lowest dose; ref Backonja et al., 2017; cited from earlier work
Description: (§1) Results from Phase 1 clinical trials ([Rolan et al., 2015]; [Okkerse et al., 2016]) further support the application of ARTN for treatment of peripheral nerve injury and attenuation of neuropathic pain. A recent Phase 2 trial (SPRINT) that evaluated the sa ...

[7] = test system: surgically and chemically induced nerve injury models; conditions: systemic treatment; ref Gardell et al., 2003; Bennett et al., 2006; Wang et al., 2008; Wong et al., 2015; cited from earlier work
Description: as §1

[8] = biological target: T1, recombinant human GFRα3/Fc (human, UniProt O60609 32-374); assay: SPR; Biacore 2000, 25°C, HBS-EP (10 mM HEPES pH 7.4, 150 mM NaCl, 3 mM EDTA, 0.005% P20); ARTN (~2300 RU) or artefin (~1600 RU) amine-coupled on a CM4 chip; serially diluted GFRα3/Fc or NCAM Ig1–3 injected at 20 μl/min; 1:1 interaction model or steady-state affinity analysis; conditions: both partners purified
T1 construct: GDNF family receptor alpha-3 (GFRα3), human; Commercial Fc chimera; also called GFL receptor α3; source: bought: R&D Systems
T1 sequence (looked up): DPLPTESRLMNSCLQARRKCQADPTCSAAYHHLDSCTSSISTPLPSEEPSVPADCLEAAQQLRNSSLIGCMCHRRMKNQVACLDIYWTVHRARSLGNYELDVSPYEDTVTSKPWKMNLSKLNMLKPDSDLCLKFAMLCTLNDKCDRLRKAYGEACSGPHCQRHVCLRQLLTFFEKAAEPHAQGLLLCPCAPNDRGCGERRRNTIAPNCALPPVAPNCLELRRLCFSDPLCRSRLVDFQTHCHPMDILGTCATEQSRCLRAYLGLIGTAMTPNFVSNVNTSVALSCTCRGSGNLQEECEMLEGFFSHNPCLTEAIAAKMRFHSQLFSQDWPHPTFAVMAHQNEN

[9] = biological target: T2, recombinant rat NCAM Ig1–3 (rat, UniProt P13596 20-308); assay: as above; conditions: both partners purified
T2 construct: neural cell adhesion molecule (NCAM), rat, Ig1–3 domains; also called NCAM Ig1–3 domain; source: recombinant, produced as described previously (Soroka et al., 2003)
T2 sequence (P13596 20-308): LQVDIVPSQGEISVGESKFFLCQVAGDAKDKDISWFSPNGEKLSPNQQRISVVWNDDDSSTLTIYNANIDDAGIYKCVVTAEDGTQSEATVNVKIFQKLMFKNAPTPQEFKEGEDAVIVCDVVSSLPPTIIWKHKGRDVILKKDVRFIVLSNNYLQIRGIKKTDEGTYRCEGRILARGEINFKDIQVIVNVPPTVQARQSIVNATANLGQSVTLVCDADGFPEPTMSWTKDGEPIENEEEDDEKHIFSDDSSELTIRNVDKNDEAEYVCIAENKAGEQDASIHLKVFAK

binding to GFRα1 (GFRα1 [1]): binds to GFRα1
binding to GFRα2 (GFRα2 [2]): binds to GFRα1 and GFRα2
secondary structure in solution (far-UV CD) [3]: a-helix confirmation is dominant
Molecule: I: RSPHDLSLASLLGAGKK-NH2 / II: RSPHDLSLASLLGAGK / III: RSPHDLSLASLLGAG / IV: RSPHDLSLASLLGAG (amide I:16-IV:C, I:17-II:C, II:16-III:C; C-terminus assumed) [artefin]
far-UV CD bands ([3]; 190–250 nm): negative band at 208 nm, a shoulder at 222 nm, and a positive band at 193 nm

Kd [8]: 2.7 nM
Kd [9]: 13 µM
B1: recombinant human Artemin (ARTN) (ligand, UniProt Q5T4W7 108-220, looked up)
chain: AGGPGSRARAAGARGCRLRSQLVPVRALGLGHRSDELVRFRFCSGSCRRARSPHDLSLASLLGAGALRPPPGSRPVSQPCCRPTRYEAVSFMDVNSTWRTVDRLSATACGCLG
notes: Artemin (ARTN), human, UniProt D3DPX9; source: bought: R&D Systems
interaction with GFRα1 (GFRα1 [4]): previously been shown to interact with GFRα1
interaction with GFRα2 (GFRα2 [5]): previously been shown to interact with GFRα1and GFRα2
reducing pain in patients with lumbosacral radiculopathy [6]: showed evidence of pain relief
effect on behavioral symptoms of neuropathic pain [7]: mitigates behavioral symptoms associated with neuropathic pain
